B1: M9-E04 (Fab, V domains shown)
VH: EVQLLESGGGLVQPGGSLRLSCAASGFTFSEYDMMWVRQAPGKGLEWVSSIGSSGGMTYYADSVKGRFTISRDNSKNTLYLQMNSLRAEDTAVYYCARDQVAAAAIDYWGQGTLVTVSS
VL: DIQMIQSPSSLSASVGDRVTITCRASQSISGYLNWYQQRSGKAPKLLIFAASNLQTGVPSRFSGSGSGTDFTLTINNLQPEDFATYYCQQSHTPPKTFGPGTKVDIK
notes: HC as printed runs into CH1
B2: M9-F08 (Fab, V domains shown)
VH: EVQLLESGGGLVQPGGSLRLSCAASGFTFSPYAMTWVRQAPGKGLEWVSVIYPSGGFTDYADSVKGRFTISRDNSKNTLYLQMNSLRAEDTAMYYCARASGSYLDAFDIWGQGTMVTVSS
VL: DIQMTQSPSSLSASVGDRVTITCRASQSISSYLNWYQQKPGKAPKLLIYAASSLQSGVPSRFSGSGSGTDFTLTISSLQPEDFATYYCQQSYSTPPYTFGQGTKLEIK
notes: HC as printed runs into CH1; LC amber q (QMTqSPS) written as Q
B3: M10-D11 (Fab, V domains shown)
VH: EVQLLESGGGLVQPGGSLRLSCAASGFTFSAYPMNWVRQAPGKGLEWVSRISSSGGNTSYADSVKGRFTISRDNSKNTLYLQMNSLRAEDTAVYYCALGYLGYWGQGTLVTVSS
VL: not shown
notes: HC as printed runs into CH1
B4: M9-F10 (Fab, V domains shown)
VH: EVQLLESGGGLVQPGGSLRLSCAASGFTFSDYDMEWVRQAPGKGLEWVSSISPSGGSTIYADSVKGRFTISRDNSKNTLYLQMNSLRAEDTAVYYCARQGLLTAFDIWGQGTMVTVSS
VL: DIQMTQSPSSLSASVGDRVTITCRASQSINTYLNWYQQKPGKAPKVLIHAASTLESGVPSRFSGSGSGTDFTLTISSLQPEDFATYYCQQSYSTPYTFGQGTKLEVR
notes: HC as printed runs into CH1
B5: M9-H03 (Fab, V domains shown)
VH: EVQLLESGGGLVQPGGSLRLSCAASGFTFSWYSMGWVRQAPGKGLEWVSYIVPSGGYTMYADSVKGRFTISRDNSKNTLYLQMNSLRAEDTAVYYCARDPGVSYYYYGMDVWGQGTTVTVSS
VL: QYELTQAPSVSVAPGQTASITCSGDKLGNRYTSWYQQKPGQSPVLVIFQDNKRPSGIPERFSGSNSGNTATLTISGTQAMDEADYYCQALDSNTYVFGTGTKVTVL
notes: HC as printed runs into CH1
B6: M9-F09 (Fab, V domains shown)
VH: EVQLLESGGGLVQPGGSLRLSCAASGFTFSSYPMGWVRQAPGKGLEWVSRISSSGGMTIYADSVKGRFTISRDNSKNTLYLQMNSLRAEDTAVYYCARDDWNVGMDVWGQGTTVTVSS
VL: DIQMTQSPSSLSASVGDRVTITCRASQSISSYLNWYQQKPGKAPKLLIYAASSLQSGVPSKFSGSGSGTDYTLTISSLQPEDFATYYCQQTYTTPWTFGQGTKVEIK
notes: HC as printed runs into CH1; (as printed for M28-E01)
B7: M10-C11 (Fab, V domains shown)
VH: EVQLLESGGGLVQPGGSLRLSCAASGFTFSMYPMMWVRQAPGKGLEWVSYISPSGGMTDYADSVKGRFTISRDNSKNTLYLQMNSLRAEDMAVYYCARVAGSSDAFDIWGQGTMVTVSS
VL: DIQMTQSPSSLSASVGDRVTITCRASQSISIYLNWYQQKPEKAPKLLIFAASTLQSGVPSRFSGSGSGTDFTLTISNLQPEDFATYYCQQSHSIPPTFGLGTKVEVK
notes: HC as printed runs into CH1
B8: M9-G08 (Fab, V domains shown)
VH: EVQLLESGGGLVQPGGSLRLSCAASGFTFSYYTMLWVRQAPGKGLEWVSSIYPSGGFTMYADSVKGRFTISRDNSKNTLYLQMNSLRAEDTAVYYCARVDTAMAMIDYWGQGTLVTVSS
VL: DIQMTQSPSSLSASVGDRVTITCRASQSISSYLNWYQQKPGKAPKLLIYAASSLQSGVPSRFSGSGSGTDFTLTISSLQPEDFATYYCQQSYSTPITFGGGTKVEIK
notes: HC as printed runs into CH1
B9: M9-D08 (Fab, V domains shown)
VH: EVQLLESGGGLVQPGGSLRLSCAASGFTFSWYKMMWVRQAPGKGLEWVSSIYPSGGWTNYADSVKGRFTISRDNSKNTLYLQMNSLRAEDTAVYYCTRGSPWGDDAFDIWGQGTMVTVSS
VL: DIQMTQSPSSLSASVGDRVTLTCRASRTISFYLNWYQQKAGKAPELLIYGGSSLHSGVPSRFSGSGSGTDFSLTISNLQPEDIAVYYCQQSFSSPWTFGQGTKVEIK
notes: HC as printed runs into CH1
B10: M10-A03 (Fab, V domains shown)
VH: EVQLLESGGGLVQPGGSLRLSCAASGFTFSPYPMQWVRQAPGKGLEWVSSISSSGGMTEYADSVKGRFTISRDNSKNTLYLQMNSLRAEDTAVYYCARDDYGGKGGAFDIWGQGTMVTVSS
VL: DIQMTQSPSSLSASVGDRVTITCRASQRISFYLNWFQQKPGKAPNLLIYGASSLQSGVPSRFSGSGSGTDFTLTISSLQPKDFGTYYCQQTFSTPNTFGQGTKLEIK
notes: HC as printed runs into CH1
B11: M9-H02 (Fab, V domains shown)
VH: EVQLLESGGGLVQPGGSLRLSCAASGFTFSAYMMIWVRQAPGKGLEWVSVIYPSGGVTMYADSVKGRFTISRDNSKNTLYLQMNSLRAEDTAVYYCARGTVGASDAFDIWGQGTMVTVSS
VL: DIQMTQSPSSLSASVGDRVIITCRASRSIATYLNWYQQKPGKAPNLLIFGASTLQSGVPSRFSGSGSGTDFTLTISDLQPEDFATYYCQQSFSDPYTFGQGTNLEMK
notes: HC as printed runs into CH1
B12: M9-C10 (Fab, V domains shown)
VH: EVQLLESGGGLVQPGGSLRLSCAASGFTFSLYPMQWVRQAPGKGLEWVSSIGSSGGMTFYADSVKGRFTISRDNSKNTLYLQMNSLRAEDTAVYYCTREVGAAGFAFDIWGQGTMVTVSS
VL: DIQMTQSPSSLSASVGDRVTITCRASQGISSYLNWYQQKPGNAPNLLIYGASSLQSGVPSRFSGSGSGTDFTLTISSLQPEDFATYYCQESYSTLFTFGPGTTVEIK
notes: HC as printed runs into CH1
B13: M10-E06 (Fab, V domains shown)
VH: EVQLLESGGGLVQPGGSLRLSCAASGFTFSLYRMFWVRQAPGKGLEWVSSIWSSGGPTMYADSVKGRFTISRDNSKNTLYLQMNSLRAEDTAVYYCAREYPSTYYFDYWGQGTLVTVSS
VL: DIQMTQSPSSLSASVGDRVTITCRASQSISTYLNWYQQKPGKAPKLLIYGASSLQSGVPSRFSGSGSGTDFTLTISSLQPEDFTIYYCQQSYSDPYTFGQGTKLDIK
notes: HC as printed runs into CH1
B14: M10-A12 (Fab, V domains shown)
VH: EVQLLESGGGLVQPGGSLRLSCAASGFTFSLYLMHWVRQAPGKGLEWVSSIYSSGGFTTYADSVKGRFTISRDNSKNTLYLQMNSLRAEDTAVYYCARDTDYGMDVWGQGTTVTVSS
VL: DIQMTQSPLSLSAFVGDRVTITCRASRDISVYLNWYQLKSGKAPKLLIYGASSLQSGVPSRFSGSGSGTDFTLTITSLQPEDFATYYCQQSYSIPFTFGGGTKVETK
notes: HC as printed runs into CH1
B15: M10-B09 (Fab, V domains shown)
VH: EVQLLESGGGLVQPGGSLRLSCAASGFTFSWYEMSWVRQAPGKGLEWVSRIWPSGGVTMYADSVKGRFTISRDNSKNTLYLQMNSLRAEDTAVYYCTRTSITTVGMDVWGQGTTVTVSS
VL: DIQMTQSPSSLSASVGDGVTITCRASQSISTYLNWYQQRPGKAPKLLIYGASSLQSGVPSRFSGSGSGTDFTLTISSLQREDFATYYCQQSFSTPWTFGQGTRVEIK
notes: HC as printed runs into CH1; HC amber q (LqMNS) written as Q
B16: M9-H04 (Fab, V domains shown)
VH: EVQLLESGGGLVQPGGSLRLSCAASGFTFSAYTMWWVRQAPGKGLEWVSSIWPSGGSTFYADSVKGRFTISRDNSKNTLYLQMNSLRAEDTAVYYCARTYDSSAGEVDYWGQGTLVTVSS
VL: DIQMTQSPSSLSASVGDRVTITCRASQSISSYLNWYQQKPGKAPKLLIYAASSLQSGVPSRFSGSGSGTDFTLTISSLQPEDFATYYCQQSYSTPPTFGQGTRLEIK
notes: HC as printed runs into CH1
B17: M10-F09 (Fab, V domains shown)
VH: EVQLLESGGGLVQPGGSLRLSCAASGFTFSNYDMMWVRQAPGKGLEWVSYISPSGGFTRYADSVKGRFTISRDNSKNTLYLQMNSLRAEDTATYYCAKDIYYYNWGPSHYFDSWGQGTLVTVSS
VL: DIQMTQSPSSLSASVGDRVTITCRASQTIDDDLIWYQQKPGRAPKLLIYAASSLQSGVPSRFSGSGSGTDFTLTITSLQPEDFATYYCQQSYNIPRTFGQGTKLESK
notes: HC as printed runs into CH1

Molecular target: T1, human plasma kallikrein (human, UniProt P03952 20-390; P03952 391-638)
T1 construct: also called pKal; Human pKal
Test: ELISA, biotinylated pKal signal over streptavidin background
Source text: Abbreviations used: “T/B” is the ELISA signal obtained using of the “target” (biotinylated plasma kallikrein) divided by the ELISA signal of the “background” (streptavidin); both of which were coated on microtiter plates, “nd” is not determined. The symbol “q” refers to the amber suppressible stop codon (TAG), which is translated as glutamine (Q) in strains of E. coli such as the TG1 cells that were used to express the Fab fragments.

T1 sequence (P03952 20-390, chain 1 of 2): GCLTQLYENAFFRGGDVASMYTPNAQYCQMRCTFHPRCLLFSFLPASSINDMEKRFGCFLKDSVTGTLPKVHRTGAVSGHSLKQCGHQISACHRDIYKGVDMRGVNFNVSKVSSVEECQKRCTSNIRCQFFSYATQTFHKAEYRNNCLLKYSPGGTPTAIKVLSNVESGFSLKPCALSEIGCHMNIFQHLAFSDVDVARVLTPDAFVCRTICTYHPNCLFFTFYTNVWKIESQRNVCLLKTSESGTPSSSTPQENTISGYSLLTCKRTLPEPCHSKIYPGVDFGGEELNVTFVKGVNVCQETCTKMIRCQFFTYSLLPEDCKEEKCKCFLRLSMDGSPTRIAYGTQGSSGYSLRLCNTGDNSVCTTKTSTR
T1 sequence (P03952 391-638, chain 2 of 2): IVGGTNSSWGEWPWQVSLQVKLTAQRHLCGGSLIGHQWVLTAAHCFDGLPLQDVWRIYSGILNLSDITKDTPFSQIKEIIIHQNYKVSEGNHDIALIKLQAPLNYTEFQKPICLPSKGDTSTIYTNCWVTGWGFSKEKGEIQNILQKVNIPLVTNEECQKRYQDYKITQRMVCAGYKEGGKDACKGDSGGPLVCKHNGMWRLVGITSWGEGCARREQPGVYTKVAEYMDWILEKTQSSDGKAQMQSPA

Binder	ELISA (T/B)
B1	18.8 T/B
B2	10.9 T/B
B3	6.4 T/B
B4	8.4 T/B
B5	4.4 T/B
B6	7 T/B
B7	5.3 T/B
B8	4.8 T/B
B9	35.9 T/B
B10	33.7 T/B
B11	3.5 T/B
B12	7.8 T/B
B13	32.8 T/B
B14	20.8 T/B
B15	14.1 T/B
B16	16.1 T/B
B17	4.8 T/B

— patent publication US20260184815A1 (published 2026)
